Test results as given in US20250304693A1 (HIFIBIO, published 2025).

Experiments:
[1] = molecular target: T1, human BTLA (B- and T-lymphocyte attenuator) on cells (human, UniProt Q7Z6A9 31-289); test: FACS, HEK293 cells overexpressing human BTLA, AF647 anti-human IgG Fc secondary antibody
T1 construct: whole, on cells; also called hBTLA; HEK293.BTLA

cynomolgus BTLA on cells [2] = molecular target: T2, cynomolgus BTLA on cells (cynomolgus, UniProt A0A2K5W7M7 31-289); test: FACS, Expi293 cells overexpressing cynomolgus BTLA, AF647 anti-human IgG Fc secondary antibody
T2 construct: whole, on cells; Overexpressed on Expi293 cells; also called cyno BTLA; CynoBTLA
T2 sequence: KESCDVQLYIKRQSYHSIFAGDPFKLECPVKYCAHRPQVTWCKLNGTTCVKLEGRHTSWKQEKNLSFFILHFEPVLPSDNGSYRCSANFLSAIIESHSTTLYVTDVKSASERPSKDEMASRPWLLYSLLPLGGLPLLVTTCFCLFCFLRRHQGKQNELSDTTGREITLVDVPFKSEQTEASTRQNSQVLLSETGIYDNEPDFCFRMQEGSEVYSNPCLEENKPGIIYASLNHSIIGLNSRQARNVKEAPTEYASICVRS

[3] = molecular target: T1, human BTLA (B- and T-lymphocyte …); test: cell-based or functional assay
[4] = molecular target: T1, human BTLA (B- and T-lymphocyte …); test: cell-based or functional assay; remark: listed apart in the source
[5] = molecular target: T1, human BTLA (B- and T-lymphocyte …); test: FACS on HEK293T.hBTLA cells, AF647 anti-human IgG Fc detection
Method: (§1) In FIGS. 11A and 11B, HEK293 overexpressing human BTLA (FIG. 11A) and Expi293 cells overexpressing cynomolgus BTLA (FIG. 11B) were incubated with different concentrations of selected HFB6-3 humanized variants with cysteine mutations. Anti-BTLA antibodies binding to target cells were quantified with an AF647-conjugated anti-human IgG Fc 2nd antibody by FACS. HFB6-3hz24-hG4P-C109A, HFB6-3hz25-hG4P-C109A, HFB6-3hz24-hG4P-C109S and HFB6-3hz25-hG4P-C109S bound to human BTLA and cyno BTLA with single digit nM and sub-nM EC₅₀, similar as parental HFB6-3 (FIGS. 11A and 11B and Table 13).

cynomolgus BTLA on cells [6] = molecular target: T2, cynomolgus BTLA on cells; test: FACS on Expi293.cynoBTLA cells, AF647 anti-human IgG Fc detection
Method: as §1

[7] = molecular target: T1, human BTLA (B- and T-lymphocyte …); test: FACS competition on HEK293T.hBTLA cells; competitor hrHVEM-His-DL650
Method: In FIG. 12A, recombinant HVEM soluble protein was conjugated with DyLight 650 (DL650) fluorophore. HEK293 cells overexpressing hBTLA (HEK293.BTLA) were preincubated with increasing concentrations of selected HFB6-3 humanized variants with cysteine mutants or parental HFB6-3 at 4° C. for 30 minutes and then with DL650-conjugated HVEM for additional 30 minutes. After washing, soluble HVEM remaining associated with BTLA on HEK293.BTLA cells was measured by FACS.

[8] = molecular target: T1, human BTLA (B- and T-lymphocyte …); test: FACS competition on HEK293.BTLA cells; competitor DL650-conjugated soluble HVEM
Method: In FIG. 3A, recombinant HVEM soluble protein was conjugated with DyLight 650 (DL650) fluorophore. HEK293 cells overexpressing hBTLA (HEK293.BTLA) were preincubated with increasing concentrations of HFB6-2 and HFB6-3 at 4° C. for 30 minutes and then with DL650-conjugated HVEM for an additional 30 minutes. After washing, soluble HVEM remaining associated with BTLA on HEK293.BTLA cells was measured by FACS. HFB6-2 and HFB6-3 blocked soluble HVEM and cellular BTLA interaction with single digit nM IC₅₀.

[9] = molecular target: T1, human BTLA (B- and T-lymphocyte …); test: FACS on HEK293 cells overexpressing human BTLA, AF647 anti-human IgG Fc detection
Method: (§2) In FIGS. 2A-2B, HEK293 cells overexpressing human BTLA and Expi293 cells overexpressing cynomolgus BTLA were incubated with different concentrations of anti-BTLA parental antibodies. Anti-BTLA antibody binding to target cells was quantified with an AF647-conjugated anti-human IgG Fc 2nd antibody by FACS.

cynomolgus BTLA on cells [10] = molecular target: T2, cynomolgus BTLA on cells; test: FACS on Expi293 cells overexpressing cynomolgus BTLA, AF647 anti-human IgG Fc detection
Method: as §2

[11] = molecular target: T1, human BTLA (B- and T-lymphocyte …); test: FACS, primary human T cells, donor 149, AF647 anti-human IgG Fc secondary antibody
Method: (§3) In FIGS. 4A-4D, primary T cells and B cells were isolated from human PBMC with EasySep™ Human T Cell Isolation Kit and B cell isolation kit ([…] Technologies: Vancouver, Canada). Isolated T cells or B cells were incubated with different concentrations of anti-BTLA parental antibodies. Anti-BTLA antibody binding to target cells was quantified with an AF647-conjugated anti-human IgG Fc 2nd antibody by FACS.

[12] = molecular target: T1, human BTLA (B- and T-lymphocyte …); test: FACS, primary human B cells, donor 149, AF647 anti-human IgG Fc secondary antibody
Method: as §3

[13] = molecular target: T1, human BTLA (B- and T-lymphocyte …); test: FACS, primary human T cells, donor 1709, AF647 anti-human IgG Fc secondary antibody
Method: as §3

[14] = molecular target: T1, human BTLA (B- and T-lymphocyte …); test: FACS, primary human B cells, donor 1709, AF647 anti-human IgG Fc secondary antibody
Method: as §3

B1: 22B3 (antibody, V domains shown)
VH: QVQLVQSGAEVKKPGASVKVSCKASGFSLSSYGVSWVRQAPGQGLEWMGAISYDGITYYASWAKSRVTMTRDTSTSTVYMELSSLRSEDTAVYYCARGDYYDDYVYVYALDIWGQGTLVTVSS
VL: EIVLTQSPGTLSLSPGERATLSCQASQSISTALAWYQQKPGQAPRLLIYAASTLASGIPDRFSGSGSGTDFTLTISRLEPEDFAVYYCQQGYSSSNLDNVFGGGTKVEIKR
[1]
  EC50 (read off the curve): ~0.8 nM
Cynomolgus BTLA on cells [2]
  EC50 (read off the curve): ~0.6 nM

B2: HFB6-3 (antibody, V domains shown)
VH: EVQLQQSGAELVKPGASVKLSCTDSGFNIKDTYIHWVTQRPQQGLEWIGRIDPANGFTRYDPKFQGKATITSDTSSNTAYLQLSSLTSEDTAVYYCAREDGYPYYTLDCWGQGTSVTVSS
VL: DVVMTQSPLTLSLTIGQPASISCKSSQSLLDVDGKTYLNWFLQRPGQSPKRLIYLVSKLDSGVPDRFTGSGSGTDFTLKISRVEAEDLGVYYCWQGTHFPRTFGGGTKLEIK
notes: Mouse lead antibody; also called HFB6-3-hG4P; parental HFB6-3
[3]
  BTLA-HVEM blockade reporter assay, EC50: 12.5 nM
[4]
  CHO.TCRa.hHVEM/Jurkat.hBTLA.NFAT-luc (EC50 (nM)): 7.9 nM
[5]
  EC50: 3.21 nM
Cynomolgus BTLA on cells [6]
  EC50: 5.7 nM
[7]
  IC50: 2.69 nM
[8]
  IC50: 7.71 nM
[9]
  EC50: 1.45 nM
Cynomolgus BTLA on cells [10]
  EC50: 0.823 nM
[11]
  EC50: 3.7 nM
[12]
  EC50: 0.44 nM
[13]
  EC50: 7.3 nM
[14]
  EC50: 0.28 nM
